Reference: patent publication US20170354706A1, “HYBRID PROTEINACEOUS MOLECULE CAPABLE OF INHIBITING AT LEAST ONE ANTIBIOTIC AND PHARMACEUTICAL COMPOSITION CONTAINING IT” (priority 2014, published 2017)
Read-outs that look alike come from different tables or passages of the source.

B1: EreB: SEQ ID 5; erythromycin esterase, P05789.1, 419 aa (protein, listed as Escherichia coli)
chain: MRFEEWVKDKHIPFKLNHPDDNYDDFKPLRKIIGDTRVVALGENSHFIKEFFLLRHTLLRFFIEDLGFTTFAFEFGFAEGQIINNWIHGQGTDDEIGRFLKHFYYPEELKTTFLWLREYNKAAKEKITFLGIDIPRNGGSYLPNMEIVHDFFRTADKEALHIIDDAFNIAKKIDYFSTSQAALNLHELTDSEKCRLTSQLARVKVRLEAMAPIHIEKYGIDKYETILHYANGMIYLDYNIQAMSGFISGGGMQGDMGAKDKYMADSVLWHLKNPQSEQKVIVVAHNAHIQKTPILYDGFLSCLPMGQRLKNAIGDDYMSLGITSYSGHTAALYPEVDTKYGFRVDNFQLQEPNEGSVEKAISGCGVTNSFVFFRNIPEDLQSIPNMIRFDSIYMKAELEKAFDGIFQIEKSSVSEVVYE
B2: CTX-M16: SEQ ID 2; class A β-lactamase (cefotaximase), Genbank AAK32961, 263 aa; constituent enzyme (protein, listed as Escherichia coli)
chain: QTSAVQQKLAALEKSSGGRLGVALIDTADNTQVLYRGDERFPMCSTSKVMAAAAVLKQSETQKQLLNQPVEIKPADLVNYNPIAEKHVNGTMTLAELSAAALQYSDNTAMNKLIAQLGGPGGVTAFARAIGDETFRLDRTEPTLNTAIPGDPRDTTTPRAMAQTLRQLTLGHALGETQRAQLVTWLKGNTTGAASIRAGLPTSWTAGDKTGSGGYGTTNDIAVIWPQGRAPLVLVTYFTQPQQNAESRRDVLASAARIIAEGL
B3: TEM-36: SEQ ID 1; clavulanic acid-resistant class A β-lactamase (IR-TEM, aminopenicillinase), 263 aa; constituent enzyme (protein, listed as Escherichia coli)
chain: HPETLVKVKDAEDQLGARVGYIELDLNSGKILESFRPEERFPMVSTFKVLLCGAVLSRVDAGQEQLGRRIHYSQNDLVEYSPVTEKHLTDGMTVRELCSAAITMSDNTAANLLLTTIGGPKELTAFLHNMGDHVTRLDRWEPELNEAIPNDERDTTMPAAMATTLRKLLTGELLTLASRQQLIDWMEADKVAGPLLRSALPAGWFIADKSGAGERGSRGIIAALGPDGKPSRIVVIYTTGSQATMDERDRQIAEIGASLIKHW
B4: TEM36-GGGGGG-CTXM16: SEQ ID 8; fusion TEM36 and CTXM16 with flexible 6 glycine linker, 532 aa (protein)
chain: HPETLVKVKDAEDQLGARVGYIELDLNSGKILESFRPEERFPMVSTFKVLLCGAVLSRVDAGQEQLGRRIHYSQNDLVEYSPVTEKHLTDGMTVRELCSAAITMSDNTAANLLLTTIGGPKELTAFLHNMGDHVTRLDRWEPELNEAIPNDERDTTMPAAMATTLRKLLTGELLTLASRQQLIDWMEADKVAGPLLRSALPAGWFIADKSGAGERGSRGIIAALGPDGKPSRIVVIYTTGSQATMDERDRQIAEIGASLIKHWGGGGGGQTSAVQQKLAALEKSSGGRLGVALIDTADNTQVLYRGDERFPMCSTSKVMAAAAVLKQSETQKQLLNQPVEIKPADLVNYNPIAEKHVNGTMTLAELSAAALQYSDNTAMNKLIAQLGGPGGVTAFARAIGDETFRLDRTEPTLNTAIPGDPRDTTTPRAMAQTLRQLTLGHALGETQRAQLVTWLKGNTTGAASIRAGLPTSWTAGDKTGSGGYGTTNDIAVIWPQGRAPLVLVTYFTQPQQNAESRRDVLASAARIIAEGL
modifications: TEM36-GGGGGG-CTXM16
notes: fusion TEM36 and CTXM16 with flexible 6 glycine linker, 532 aa

How the values were obtained:
E. coli BL21(DE3)pLysS [1] = assay: MICs of beta-lactams on LB-agar for E. coli expression strains (Example 4); type: cell-based, Escherichia coli; conditions: Table 10; for MIC of the antibiotic for the empty strain BL21(DE3)pLysS: no recombinant protein; for MIC of Amoxicillin for E. coli strain expressing the protein / MIC of Augmentin for E. coli strain expressing the protein / MIC of Rocephine for E. coli strain expressing the protein: BL21(DE3)pLysS + protein, IPTG induced, LB-agar, 37° C. overnight
Protocol: The pre-cultures are then inoculated at 1/40th in 5 ml of LB+50 μg/ml Kanamycin medium and when the OD600 reaches a value of 0.6 (about 2 hours), the production of protein is induced by the addition of final IPTG 1 mM and continues for 1.5 hours at 37° C. with stirring at 200 rpm.
The dishes were incubated at 37° C. overnight and the results were recorded the following day. The MICs correspond to the lowest concentration of antibiotic at which the highest inoculum doesn't grow.

[2] = cited from earlier work
E. coli BL21(DE3)pLysS [3] = assay: MICs of beta-lactams and macrolide on LB-agar for E. coli expression strains (Example 6); type: cell-based, Escherichia coli; conditions: Table 14
Protocol: The pre-cultures are then inoculated at 1/40th in 5 ml of LB+50 μg/ml Kanamycin medium and when the OD600 nm reaches a value of 0.6 (about 2 hours), the production of protein is induced by the addition of 1 mM final IPTG and continued for 1.5 hours at 37° C. with stirring at 200 rpm.
The dishes are incubated at 37° C. over night and the results are recorded the next day. The MICs correspond to the lowest concentration of antibiotic at which the highest inoculum no longer grows.

[4] = pH-STAT beta-lactam hydrolysis assay, substrate amoxicillin; type: biochemical; conditions: 37° C., pH=7.0
Protocol: (§1) The purified proteins were tested on different beta-lactams (amoxicillin (Apollo Scientific), Augmentin® (GlaxoSmithKline) and Ceftriaxone (Rocéphine®, Roche)). The assays are carried out at pH-STAT (Titrino 2.5, Metrohm) in a reaction volume of 25 ml at 37° C. and pH=7.0. The substrates are prepared at 4 g/l in a 0.3 mM Tris buffer, 150 mM NaCl. The enzyme hydrolysis of the beta-lactam nuclei releases an acid and induces a drop in the pH. The principle of the assay is to compensate for the acidification by the addition of 0.1 N sodium hydroxide so as to remain at pH=7.0. In these conditions, one unit corresponds to 1 μmole of sodium hydroxide added per minute, that is, one μmole of beta-lactam hydrolysed per minute. Table 3 below lists the specific activities measured for each protein on the three substrates (mean of 6 replicates).

[5] = pH-STAT beta-lactam hydrolysis assay, substrate Augmentin; type: biochemical; conditions: 37° C., pH=7.0
Protocol: as §1

[6] = pH-STAT beta-lactam hydrolysis assay, substrate ceftriaxone; type: biochemical; conditions: pH=7.0; for Specific activity, substrate Ceftriaxone: 37° C.
Protocol: as §1
The purified proteins were tested on different antibiotics: Ceftriaxone (RocéphineED, Roche) for the beta-lactams and kanamycin for the Aminoglycosides. The assays on ceftriaxone were carried out at pH-STAT (Titrino 2.5, Metrohm) in a reaction volume of 25 ml at 37° C. and pH=7.0. The substrates are prepared at 4 g/l in a 0.3 mM Tris buffer, 150 mM NaCl. The enzyme hydrolysis of the beta-lactam nuclei releases an acid and results in a drop in the pH. The principle of the assay is to compensate this acidification by the addition of 0.1 N sodium hydroxide so as to remain at pH=7.0. In these conditions, one unit corresponds to 1 μmol of sodium hydroxide added per minute, that is one μmol of beta-lactam hydrolyzed per minute.

[7] = Acetyl-transferase indirect colorimetric assay (acetyl-CoA, DTNB); type: biochemical; conditions: Table 12; 500 μM Kanamycin, 500 μM AcetylCoA, 250 μM DTNB; 1 unit = one nanomole of TNB released per minute at 37° C.; n=6
Protocol: The activity of acety-transferase is measured by an indirect colorimetric assay with acetyl-CoA (Sigma-Aldrich) as acetyl group donor, Kanamycin as acceptor and Elleman reagent (DTNB, Sigma-Aldrich) to titrate the CoEnzymeA reduced (—SH) molecules released during the enzyme reaction [Ref]. The reaction takes place on a microtitration plate with increasing quantities of purified enzymes, in a final volume of 200 μl and with concentrations of 500 μM Kanamycin, 500 μM AcetylCoA and 250 μM DTNB. In these experimental conditions, the ion TNB^2 absorbs at 412 nm with an ε(λ=412 nm) apparent 19 000 M^−1.well^−1 (well of a 96 well plate filled with 200 μl) and 1 unit corresponds to one nanomole of TNB^2 released per minute at 37° C.

[8] = BL21(DE3)pLysS + protein, IPTG induced, LB-agar, 37° C. over night
[9] = Table 3, proteins produced in Pichia pastoris, substrate 4 g/l, 1 U = 1 μmole beta-lactam hydrolysed per minute, mean of 6 replicates
[10] = Table 5 (Example 2), proteins produced in Pichia pastoris
[11] = Table 7 (Example 3), proteins produced in Pichia pastoris
[12] = Table 9, proteins produced in Escherichia coli BL21(DE3) pLysS (periplasm, non-glycosylated)
[13] = Table 3, proteins produced in Pichia pastoris, substrate 4 g/l, mean of 6 replicates
[14] = Table 9, proteins produced in Escherichia coli BL21(DE3) pLysS

Molecule	Specific activity, substrate Amoxicillin [4, 9] [U/mg]	Specific activity, substrate Amoxicillin [4, 10] [U/mg]	Specific activity, substrate Amoxicillin [4, 11] [U/mg]	Specific activity, substrate Amoxicillin [4, 12] [U/mg]	Specific activity, substrate Augmentin [5, 13] [U/mg]	Specific activity, substrate Augmentin [5, 10] [U/mg]	Specific activity, substrate Augmentin [5, 11] [U/mg]	Specific activity, substrate Augmentin [5, 14] [U/mg]	Specific activity, substrate Ceftriaxone [6, 13] [U/mg]	Specific activity, substrate Ceftriaxone [6, 10] [U/mg]	Specific activity, substrate Ceftriaxone [6, 11] [U/mg]	Specific activity, substrate Ceftriaxone [6, 14] [U/mg]	also measured
CO/N=C(\C(=O)N[C@@H]1C(=O)N2C(C(=O)O)=C(CSc3nc(=O)c(O)nn3C)CS[C@H]12)c1csc(N)n1 [Rocephine, Ceftriaxone, reference compound]													MIC of the antibiotic for the empty strain BL21(DE3)pLysS (E. coli BL21(DE3)pLysS [1]): <0.5 μg/ml
CC[C@H]1OC(=O)[C@H](C)[C@@H](O[C@H]2C[C@@](C)(OC)[C@@H](O)[C@H](C)O2)[C@H](C)[C@@H](O[C@@H]2O[C@H](C)C[C@H](N(C)C)[C@H]2O)[C@](C)(O)C[C@@H](C)CN(C)[C@H](C)[C@@H](O)[C@]1(C)O [azithromycin]													Patients with acute diarrhoea induced by antibiotics ([2]; human, in vivo): 2-5%
CC1(C)S[C@@H]2[C@H](NC(=O)[C@H](N)c3ccc(O)cc3)C(=O)N2[C@H]1C(=O)O [Amoxicillin, amoxicillin, reference compound]													MIC of the antibiotic for the empty strain BL21(DE3)pLysS (E. coli BL21(DE3)pLysS [1]): <0.5 μg/ml; MIC of the antibiotic for the empty strain BL21(DE3)pLysS (E. coli BL21(DE3)pLysS [3]; empty strain, no recombinant protein): <2 μg/ml; Patients with acute diarrhoea induced by antibiotics ([2]; patients receiving antibiotic therapy): 5-10%
B1													MIC of Amoxicillin for E. coli strain expressing the protein (E. coli BL21(DE3)pLysS [3]; [8]): <2 µg/mL; MIC of Augmentin for E. coli strain expressing the protein (E. coli BL21(DE3)pLysS [3]; [8]): <2 µg/mL; MIC of Erythromycin for E. coli strain expressing the protein (E. coli BL21(DE3)pLysS [3]; [8]): >1024 µg/mL
B2	31 ± 2	31 ± 2	31 ± 2	21 ± 1	0	0	0	0	306 ± 44	306 ± 44	306 ± 44	158 ± 14	Specific activity, substrate Cetriaxone ([6]; Table 12, pH-STAT 37° C., AAC and fusion from E. coli, CTX-M16 from P. pastoris, n=6): 336 ± 5 U/mg; Specific activity, substrate Kanamycin [7]: 0 U/mg; MIC of Amoxicillin for E. coli strain expressing the protein (E. coli BL21(DE3)pLysS [1]): >1024 µg/mL; MIC of Augmentin for E. coli strain expressing the protein (E. coli BL21(DE3)pLysS [1]): 4 µg/mL; MIC of Rocephine for E. coli strain expressing the protein (E. coli BL21(DE3)pLysS [1]): 512 µg/mL
B3	816 ± 90	816 ± 90	816 ± 90	3593 ± 87	97 ± 74	97 ± 74	97 ± 74	385 ± 31	0	0	0	1 ± 1	MIC of Amoxicillin for E. coli strain expressing the protein (E. coli BL21(DE3)pLysS [1]): >1024 µg/mL; MIC of Augmentin for E. coli strain expressing the protein (E. coli BL21(DE3)pLysS [1]): 512 µg/mL; MIC of Rocephine for E. coli strain expressing the protein (E. coli BL21(DE3)pLysS [1]): <0.5 µg/mL; MIC of Amoxicillin for E. coli strain expressing the protein (E. coli BL21(DE3)pLysS [3]; [8]): >2048 µg/mL; MIC of Augmentin for E. coli strain expressing the protein (E. coli BL21(DE3)pLysS [3]; [8]): 512 µg/mL
B4	695 ± 98	890 ± 83	890 ± 176	633 ± 99	42 ± 33	42 ± 14	34 ± 6	24 ± 5	114 ± 44	123 ± 35	141 ± 55	138 ± 32	
